From article PMC3998727 (Nature medicine, 2012) come the findings set out here.

Assay [1] concerns DN kidney. Put plainly: Advanced diabetic nephropathy, captopril and THR–123 combination. The conditions noted are these: eight months DN. In kind it is in vivo, mice.
The subject of assay [2] is TECs (NP–1 cells). The assay can be described thus: Reversal of TGF-β and EGF induced EMT in TECs. Conditions: TECs after 48 hours of incubation with TGF-β and EGF. In kind it is cell-based.
Assay [3] has as its system DN kidney. Put plainly: Streptozotocin–induced diabetic nephropathy. In kind it is in vivo, CD–1 mice.
In assay [4] the test system is tubular epithelial cells (TECs; NP–1 cells). Put plainly: Hypoxia induced apoptosis of TECs. In kind it is cell-based. The conditions noted are these: Annexin V; NP–1 cells in hypoxia.

As to `C[C@H](CS)C(=O)N1CCC[C@H]1C(=O)O` [CPR, captopril], the EMT program entry in assay [1] is on record as “inhibited”. In addition, in assay [1] (Mac–1), the macrophage infiltration result is “inhibited macrophage infiltration”.

B1: BMP7: Bone morphogenetic protein–7, member of the TGF-β superfamily, natural ligand of Alk3 (protein, UniProt P18075 293-431, looked up)
Bone morphogenetic protein 7: STGSKQRSQNRSKTPKNQEALRMANVAENSSSDQRQACKKHELYVSFRDLGWQDWIIAPEGYAAYYCEGECAFPLNSYMNATNHAIVQTLVHFINPETVPKPCCAPTQLNAISVLYFDDSSNVILKKYRNMVVRACGCH
Regarding B1, in assay [2], the “reversal of TGF-β–induced EMT” value is given as “reversed”. In addition, the mesangium expansion result in assay [3] (STZ–induced six month DN, BMP7 1–6 months, THR–123 5–6 months treatment) is “inhibited mesangium expansion”. In addition, in assay [3] (six months DN), the “induction of an EMT program” value was “inhibited induction of an EMT program” and the “renal dysfunction (blood urea nitrogen)” value is “significantly reversed renal dysfunction”. Further, in assay [3] (six months DN, Mac–1, F4/80), the macrophage infiltration entry is “reduced macrophage infiltration”. In assay [4], the “hypoxia induced apoptosis of TECs” value is reported as “inhibited”.
